Results reported in patent publication US20230242651A1 (published 2023).

T1: human interleukin-23 receptor (IL23R) (human, UniProt Q5VWK5 24-355, limits assumed)
T1 construct: also called human IL23R
T1 sequence (looked up): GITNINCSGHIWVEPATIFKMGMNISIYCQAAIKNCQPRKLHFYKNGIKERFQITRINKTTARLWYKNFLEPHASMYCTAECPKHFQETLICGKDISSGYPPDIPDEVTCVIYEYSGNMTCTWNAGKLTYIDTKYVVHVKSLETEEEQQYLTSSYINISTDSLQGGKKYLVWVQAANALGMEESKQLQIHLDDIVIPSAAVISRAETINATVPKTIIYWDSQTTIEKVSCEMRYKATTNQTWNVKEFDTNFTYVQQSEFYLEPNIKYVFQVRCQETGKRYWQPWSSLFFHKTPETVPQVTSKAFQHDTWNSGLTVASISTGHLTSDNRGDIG


Columns and labels:
[1] = molecular target: T1, human interleukin-23 receptor (IL23R); assay: SPR; KD of the capped scFv over KD of its uncapped counterpart
In short: (§1)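 Humanized rabbit variable domains were made as single-chain variable fragments (scFv) on consensus germline framework pairs, with or without a λ-cap (Vκ framework IV replaced by a Vλ germline sequence). They were expressed in E. coli as inclusion bodies, solubilized and refolded in a generic refolding buffer. Affinity for human IL23R was measured by surface plasmon resonance, giving rate constants and dissociation constant, or the λ-capped over uncapped dissociation-constant ratio.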

[2] = molecular target: T1, human interleukin-23 receptor (IL23R); assay: SPR, scFv
In short: as §1

[3] = molecular target: T1, human interleukin-23 receptor (IL23R); assay: SPR, scFv (summary table)
In short: as §1

Binder | Ratio (capped/uncapped) of KD [1] | Kd [2] [nM] | koff [2] [s⁻¹] | kon [2] [M⁻¹ s⁻¹] | Kd [3] [nM]
Vκ2/VH1A consensus λ-capped, human IL23R specific scFv (scFv, scFv VL-linker-VH, made in E. coli; also called Vκ2VH1A capped) scFv: DIVMTQSPLSLPVTPGEPASISCQASENIYSFLAWYLQKPGQSPQLLIYSASKLAAGVPDRFSGSGSGTDFTLKISRVEAEDVGVYYCQQTNRYSNPDIYNVFGGGTKLTVLGGGGGSGGGGSGGGGSGGGGSQVQLVQSGAEVKKPGSSVKVSCKASGIDFNSNYYMCWVRQAPGQGLEWMGCIYVGSHVNTYYANWAKGRVTITADESTSTAYMELSSLRSEDTAVYYCATSGSSVLYFKFWGQGTLVTVSS | 0.3 | 0.0772 | 0.000184 | 2.39e+06 | 0.0772
Vκ1/VH6 consensus λ-capped, human IL23R specific scFv (scFv, scFv VL-linker-VH, made in E. coli; also called Vκ1VH6 capped) scFv: DIQMTQSPSSLSASVGDRVTITCQASENIYSFLAWYQQKPGKAPKLLIYSASKLAAGVPSRFSGSGSGTDFTLTISSLQPEDFATYYCQQTNRYSNPDIYNVFGGGTKLTVLGGGGGSGGGGSGGGGSGGGGSQVQLQQSGPGLVKPSQTLSLTCAISGIDFNSNYYMCWIRQSPGRGLEWLGCIYVGSHVNTYYANWAKGRITINPDTSKNQFSLQLNSVTPEDTAVYYCATSGSSVLYFKFWGQGTLVTVSS | 1 | 0.245 | 0.000349 | 1.42e+06 | 0.245
Vκ1/VH5 consensus λ-capped, human IL23R specific scFv (scFv, scFv VL-linker-VH, made in E. coli; also called Vκ1VH5 capped) scFv: DIQMTQSPSSLSASVGDRVTITCQASENIYSFLAWYQQKPGKAPKLLIYSASKLAAGVPSRFSGSGSGTDFTLTISSLQPEDFATYYCQQTNRYSNPDIYNVFGGGTKLTVLGGGGGSGGGGSGGGGSGGGGSEVQLVQSGAEVKKPGESLKISCKGSGIDFNSNYYMCWVRQMPGKGLEWMGCIYVGSHVNTYYANWAKGQVTISADKSISTAYLQWSSLKASDTAMYYCATSGSSVLYFKFWGQGTLVTVSS | 1.7 | 0.398 | 0.000671 | 1.69e+06 | 0.398
Vκ1/VH4 consensus λ-capped, human IL23R specific scFv (scFv, scFv VL-linker-VH, made in E. coli; also called Vκ1VH4 capped) scFv: DIQMTQSPSSLSASVGDRVTITCQASENIYSFLAWYQQKPGKAPKLLIYSASKLAAGVPSRFSGSGSGTDFTLTISSLQPEDFATYYCQQTNRYSNPDIYNVFGGGTKLTVLGGGGGSGGGGSGGGGSGGGGSQVQLQESGPGLVKPSETLSLTCTVSGIDFNSNYYMCWIRQPPGKGLEWIGCIYVGSHVNTYYANWAKGRVTISVDTSKNQFSLKLSSVTAADTAVYYCATSGSSVLYFKFWGQGTLVTVSS | 0.5 | 0.0455 | 0.000191 | 4.2e+06 | 0.0455

Continued, values first:

Ratio (capped/uncapped) of KD [1] | Kd [2] [nM] | koff [2] [s⁻¹] | kon [2] [M⁻¹ s⁻¹] | Kd [3] [nM] | Binder
0.4 | 0.0481 | 0.000112 | 2.33e+06 | 0.0481 | Vκ2/VH4 consensus λ-capped, human IL23R specific scFv (scFv, scFv VL-linker-VH, made in E. coli; also called Vκ2VH4 capped) scFv: DIVMTQSPLSLPVTPGEPASISCQASENIYSFLAWYLQKPGQSPQLLIYSASKLAAGVPDRFSGSGSGTDFTLKISRVEAEDVGVYYCQQTNRYSNPDIYNVFGGGTKLTVLGGGGGSGGGGSGGGGSGGGGSQVQLQESGPGLVKPSETLSLTCTVSGIDFNSNYYMCWIRQPPGKGLEWIGCIYVGSHVNTYYANWAKGRVTISVDTSKNQFSLKLSSVTAADTAVYYCATSGSSVLYFKFWGQGTLVTVSS
1.7 | 0.0397 | 7.77e-05 | 1.95e+06 | 0.0397 | Vκ2/VH3 consensus λ-capped, human IL23R specific scFv (scFv, scFv VL-linker-VH, made in E. coli; also called Vκ2VH3 capped) scFv: DIVMTQSPLSLPVTPGEPASISCQASENIYSFLAWYLQKPGQSPQLLIYSASKLAAGVPDRFSGSGSGTDFTLKISRVEAEDVGVYYCQQTNRYSNPDIYNVFGGGTKLTVLGGGGGSGGGGSGGGGSGGGGSEVQLVESGGGLVQPGGSLRLSCAASGIDFNSNYYMCWVRQAPGKGLEWVSCIYVGSHVNTYYANWAKGRFTISRDNSKNTLYLQMNSLRAEDTAVYYCATSGSSVLYFKFWGQGTLVTVSS
